For data set [1], the target named is T1, Csb2 N-terminal (Cas5-like) domain (Thioalkalivibrio sulfidiphilus HL-EbGr7, UniProt B8GLG2 1-259).
T1 sequence: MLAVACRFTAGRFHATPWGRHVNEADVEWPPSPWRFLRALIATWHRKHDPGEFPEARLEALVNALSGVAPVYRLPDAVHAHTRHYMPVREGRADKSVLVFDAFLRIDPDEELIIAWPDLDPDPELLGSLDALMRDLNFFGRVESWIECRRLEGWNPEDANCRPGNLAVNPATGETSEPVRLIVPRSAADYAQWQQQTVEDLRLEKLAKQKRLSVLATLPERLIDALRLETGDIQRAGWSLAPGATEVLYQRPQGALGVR
The experiment in a line: fluorescence anisotropy; Anisotropy: 25 nM RNA, 50 mM NaCl, 1 mM DTT, 5 mM MgCl2, 1 mM EDTA, 0.1 U/ul RNase inhibitor, 37 C; EMSA/plasmid: 20 mM Tris-HCl, 50 mM NaCl, 1 mM DTT, 0.1 mg/ml BSA, 5 mM MgCl2, 1 mM EDTA, 37 C (30 min EMSA, 1 h plasmid). To be noted: protein: recombinant, tags: N-terminal His8-TEV, removed. Background: Polarisation of emitted light reports the rotation of a fluorescent probe.

Data set [2] addresses T2, Csb2 (Thioalkalivibrio sulfidiphilus HL-EbGr7, UniProt B8GLG2 1-516).
T2 sequence: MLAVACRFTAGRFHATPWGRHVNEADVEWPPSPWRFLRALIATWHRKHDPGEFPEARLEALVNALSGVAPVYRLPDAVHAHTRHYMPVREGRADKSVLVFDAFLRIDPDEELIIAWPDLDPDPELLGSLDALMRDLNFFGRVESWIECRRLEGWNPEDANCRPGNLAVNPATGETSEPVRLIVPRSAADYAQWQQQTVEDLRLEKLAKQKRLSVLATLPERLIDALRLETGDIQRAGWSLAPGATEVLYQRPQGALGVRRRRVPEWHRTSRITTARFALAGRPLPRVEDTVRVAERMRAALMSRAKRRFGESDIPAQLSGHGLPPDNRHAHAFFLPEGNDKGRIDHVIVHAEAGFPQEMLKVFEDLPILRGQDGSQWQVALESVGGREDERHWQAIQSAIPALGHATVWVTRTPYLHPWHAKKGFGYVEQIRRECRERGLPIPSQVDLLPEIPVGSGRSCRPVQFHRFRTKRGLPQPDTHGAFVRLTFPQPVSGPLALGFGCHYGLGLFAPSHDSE
The experiment in a line: fluorescence anisotropy; no appreciable binding; Anisotropy: 25 nM RNA, 50 mM NaCl, 1 mM DTT, 5 mM MgCl2, 1 mM EDTA, 0.1 U/ul RNase inhibitor, 37 C; EMSA/plasmid: 20 mM Tris-HCl, 50 mM NaCl, 1 mM DTT, 0.1 mg/ml BSA, 5 mM MgCl2, 1 mM EDTA, 37 C (30 min EMSA, 1 h plasmid). Conditions: protein: recombinant; tags: cloning described in pET-Duet and pEV5HisTEV; His8-TEV tag removed.

Data set [3] concerns the molecule itself. Nature of the data set: cryo-EM structure; SEC-purified complex of Cas7, Cas8g, Csb2 and 72 nt crRNA, 1 mg/ml; Titan Krios 300 kV; multibody refinement for Cas8g (~8 Å).
In data set [4] the target is T2, Csb2. Nature of the data set: fluorescence anisotropy; 5 mM MgCl2, 1 mM EDTA; Anisotropy: 25 nM RNA, 50 mM NaCl, 1 mM DTT, 5 mM MgCl2, 1 mM EDTA, 0.1 U/ul RNase inhibitor, 37 C; EMSA/plasmid: 20 mM Tris-HCl, 50 mM NaCl, 1 mM DTT, 0.1 mg/ml BSA, 5 mM MgCl2, 1 mM EDTA, 37 C (30 min EMSA, 1 h plasmid). To be noted: protein: recombinant; tags: cloning described in pET-Duet and pEV5HisTEV; His8-TEV tag removed; label: 5'-6-FAM; hairpin.

Another data set has as its target Csb2;Cas7;Cas8g;Cas3 (Thioalkalivibrio sulfidiphilus …, UniProt B8GLG2;B8GLG3;B8GLG4;B8GLG5 1-516;1-316;1-720;1-828, |||). The experiment in a line: EMSA; 0.8 uM effector; near-complete shift; Anisotropy: 25 nM RNA, 50 mM NaCl, 1 mM DTT, 5 mM MgCl2, 1 mM EDTA, 0.1 U/ul RNase inhibitor, 37 C; EMSA/plasmid: 20 mM Tris-HCl, 50 mM NaCl, 1 mM DTT, 0.1 mg/ml BSA, 5 mM MgCl2, 1 mM EDTA, 37 C (30 min EMSA, 1 h plasmid). Conditions: protein: recombinant;recombinant;recombinant;recombinant; tags: cloning described in pET-Duet and pEV5HisTEV; copies: 1;7;1;1; label: 32P 5' end on DNA; crRNA / target strand / non-target strand; target strand as printed has 1 nt 5' overhang. Background: A gel shift assay detects complexes by their altered migration in electrophoresis.

Another data set concerns the target T3, Csb2;Cas7 (Thioalkalivibrio sulfidiphilus …, UniProt B8GLG2;B8GLG3 1-516;1-316, |).
T3 sequence 1: T2 sequence
T3 sequence 2: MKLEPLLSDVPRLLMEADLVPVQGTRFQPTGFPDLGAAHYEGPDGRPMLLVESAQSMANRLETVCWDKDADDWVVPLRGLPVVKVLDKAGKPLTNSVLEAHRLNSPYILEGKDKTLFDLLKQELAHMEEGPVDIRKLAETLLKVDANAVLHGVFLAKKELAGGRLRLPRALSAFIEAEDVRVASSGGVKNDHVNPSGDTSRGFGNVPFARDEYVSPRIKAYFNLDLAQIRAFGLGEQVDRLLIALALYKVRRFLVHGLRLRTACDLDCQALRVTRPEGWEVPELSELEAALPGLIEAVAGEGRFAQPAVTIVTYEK
The experiment in a line: EMSA; 0.8 uM effector; no Cas8g, no Cas3; no apparent shift; Anisotropy: 25 nM RNA, 50 mM NaCl, 1 mM DTT, 5 mM MgCl2, 1 mM EDTA, 0.1 U/ul RNase inhibitor, 37 C; EMSA/plasmid: 20 mM Tris-HCl, 50 mM NaCl, 1 mM DTT, 0.1 mg/ml BSA, 5 mM MgCl2, 1 mM EDTA, 37 C (30 min EMSA, 1 h plasmid). Conditions: protein: recombinant;recombinant, tags: cloning described in pET-Duet and pEV5HisTEV, His8-TEV tag removed;N-terminal His8-TEV, copies: 1;7, label: 32P 5' end on DNA, crRNA / target strand / non-target strand, target strand as printed has 1 nt 5' overhang.

The next data set addresses T4, Cas3 (Thioalkalivibrio sulfidiphilus HL-EbGr7, UniProt B8GLG5 1-828).
T4 sequence: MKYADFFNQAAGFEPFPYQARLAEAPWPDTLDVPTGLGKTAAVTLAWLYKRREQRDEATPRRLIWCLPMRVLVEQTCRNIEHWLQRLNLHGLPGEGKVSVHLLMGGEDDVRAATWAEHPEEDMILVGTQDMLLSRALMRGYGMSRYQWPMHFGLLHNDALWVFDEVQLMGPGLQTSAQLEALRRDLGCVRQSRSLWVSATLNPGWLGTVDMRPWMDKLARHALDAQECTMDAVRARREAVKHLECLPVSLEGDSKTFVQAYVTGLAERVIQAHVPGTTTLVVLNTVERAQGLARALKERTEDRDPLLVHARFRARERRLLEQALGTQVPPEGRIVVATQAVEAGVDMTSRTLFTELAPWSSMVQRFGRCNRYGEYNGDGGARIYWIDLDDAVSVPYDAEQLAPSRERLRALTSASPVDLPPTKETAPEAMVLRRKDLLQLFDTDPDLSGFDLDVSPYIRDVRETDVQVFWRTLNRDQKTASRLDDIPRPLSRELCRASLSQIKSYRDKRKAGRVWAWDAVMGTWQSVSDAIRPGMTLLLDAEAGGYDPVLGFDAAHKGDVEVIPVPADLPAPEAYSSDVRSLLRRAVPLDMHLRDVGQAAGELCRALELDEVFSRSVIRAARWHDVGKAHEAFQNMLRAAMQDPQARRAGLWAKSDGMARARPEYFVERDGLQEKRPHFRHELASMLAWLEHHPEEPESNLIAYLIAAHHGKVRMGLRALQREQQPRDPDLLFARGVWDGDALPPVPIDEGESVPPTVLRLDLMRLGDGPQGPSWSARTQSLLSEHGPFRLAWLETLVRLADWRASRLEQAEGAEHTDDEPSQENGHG
Nature of the data set: EMSA; Cas3 alone; TS- or NTS-labelled; Anisotropy: 25 nM RNA, 50 mM NaCl, 1 mM DTT, 5 mM MgCl2, 1 mM EDTA, 0.1 U/ul RNase inhibitor, 37 C; EMSA/plasmid: 20 mM Tris-HCl, 50 mM NaCl, 1 mM DTT, 0.1 mg/ml BSA, 5 mM MgCl2, 1 mM EDTA, 37 C (30 min EMSA, 1 h plasmid). To be noted: protein: recombinant; tags: N-terminal His8-TEV, removed; label: 32P on TS or NTS (EMSA); 1 nt 5' overhang on strand 1 as printed.

Six molecules from PMC9638904, “Structure and mechanism of the type I-G CRISPR effector” (Nucleic Acids Research, 2022) can be followed below.

B1: 8 nt 5' handle RNA (ssRNA)
RNA: AUUGAAGC
Turning to B1, the binding result (in data set [1]; with Csb2 [2]) was “no binding” each time.

B2: Cas7 (type I-G CRISPR effector subunit, Thioalkalivibrio sulfidiphilus HL-EbGr7) (natural protein, UniProt B8GLG3 1-316, looked up)
chain: T3 sequence 2
notes: synthetic gene, codon-optimised for E. coli; Seven copies stand on the crRNA in the Cascade complex; also called Cas7.1 to Cas7.7 (the seven copies in the complex); source: E. coli C43(DE3), purified (HisTrap, TEV cleavage, gel filtration); not shown: His8, N-terminal, cleaved
Take B2: in data set [3], the stoichiometry N (in general, a count of units in the complex or per binding partner) turned out to be 7.

B3: CRISPR repeat RNA (36 nt) (structured_RNA)
RNA: GUCAUCCGCGGCAUUUAGCCGCGGCCUCAUUGAAGC
On to B3, for which the binding result in data set [1] (label: 5'-6-FAM, hairpin) is reported as “no binding”. Besides, in the data set with Csb2 [4], the Kd (commonly the free concentration of one partner at which half of the binding sites on the other are occupied at equilibrium, for simple one-to-one binding) stood at 55 nM.

B4: 3' hairpin RNA (28 nt) (structured_RNA)
RNA: GUCAUCCGCGGCAUUUAGCCGCGGCCUC
B4: in data set [1] (label: 5'-6-FAM, hairpin), the binding result was “no binding”. Also, the Kd in the data set with Csb2 [4] was 43 nM.

B5: Tet crRNA with 80 bp target dsDNA (mixed)
RNA: AUUGAAGCAAGCUGUCCCUGAUGGUCGUCAUCUACCUGCCUGGAGUCAUCCGCGGCAUUUAGCCGCGGCCUC
DNA 1: GCCCGCGTTGCAGGCCATGCTGTCCAGGCAGGTAGATGACGACCATCAGGGACAGCTTCAAGGATCGCTCGCGGCTCTTAC
DNA 2: GTAAGAGCCGCGAGCGATCCTTGAAGCTGTCCCTGATGGTCGTCATCTACCTGCCTGGACAGCATGGCCTGCAACGCGGG
With B5, the binding result in the data set with Csb2;Cas7;Cas8g;Cas3 is given as “binds”; with Csb2;Cas7, “no binding”.

B6: 80 bp target dsDNA (no crRNA) (dsDNA)
DNA 1: B5 DNA 1
DNA 2: B5 DNA 2
For the molecule B6, the binding result with Cas3 is given as “no binding”.
